Test results from patent US20130095492A1.

How the values were obtained:
[1] = target: full-length recombinant tau (human) (UniProt P10636); experiment: sandwich immuno-PCR, Tau1 capture on plate, HT7-DNA conjugate detection, recombinant tau at 400 pg/ml in synthetic serum
[2] = target: full-length recombinant tau (human) (UniProt P10636); experiment: sandwich immuno-PCR, Tau1 capture on plate, HT7-DNA conjugate detection, recombinant tau at 16 pg/ml in synthetic serum
[3] = target: full-length recombinant tau (human) (UniProt P10636); experiment: sandwich immuno-PCR, Tau1 capture on plate, HT7-DNA conjugate detection, recombinant tau at 80 pg/ml in synthetic serum
[4] = target: full-length recombinant tau (human) (UniProt P10636); experiment: sandwich immuno-PCR, Tau1 capture on plate, HT7-DNA conjugate detection, recombinant tau at 3.2 pg/ml in synthetic serum
[5] = target: full-length recombinant tau (human) (UniProt P10636); experiment: sandwich immuno-PCR, Tau1 capture on plate, HT7-DNA conjugate detection, recombinant tau at 2000 pg/ml in synthetic serum
[6] = target: full-length recombinant tau (human) (UniProt P10636); experiment: sandwich immuno-PCR, Tau1 capture on plate, HT7-DNA conjugate detection, recombinant tau at 0.64 pg/ml in synthetic serum
[7] = target: full-length recombinant tau (human) (UniProt P10636); experiment: sandwich immuno-PCR, Tau1 capture on plate, HT7-DNA conjugate detection, recombinant tau at 10000 pg/ml in synthetic serum

Sequence of UniProt P10636 (P10636 other isoform, or with tags, fused parts or gaps): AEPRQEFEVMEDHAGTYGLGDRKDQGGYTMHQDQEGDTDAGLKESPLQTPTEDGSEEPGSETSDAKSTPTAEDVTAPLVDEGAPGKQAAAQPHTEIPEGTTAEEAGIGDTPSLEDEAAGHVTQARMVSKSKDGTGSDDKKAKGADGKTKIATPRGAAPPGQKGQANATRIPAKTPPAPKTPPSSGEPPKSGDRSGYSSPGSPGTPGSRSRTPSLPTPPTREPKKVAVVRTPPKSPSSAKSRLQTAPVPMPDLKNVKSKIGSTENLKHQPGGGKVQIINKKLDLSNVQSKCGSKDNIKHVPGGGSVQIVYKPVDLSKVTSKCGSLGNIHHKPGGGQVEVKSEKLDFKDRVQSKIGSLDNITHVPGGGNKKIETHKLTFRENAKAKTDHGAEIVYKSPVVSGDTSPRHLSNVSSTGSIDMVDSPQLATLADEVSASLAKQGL

Which results are given for Tau1 (antibody)?
delta counts [1]: 26.3 delta counts; delta counts [2]: 21.7 delta counts; delta counts [3]: 23.6 delta counts; delta counts [4]: 20.6 delta counts; delta counts [5]: 29 delta counts; delta counts [6]: 20.3 delta counts; delta counts [7]: 31.7 delta counts
